Measured values: publication PMC10786891, “Massively parallel profiling of RNA-targeting CRISPR-Cas13d”

T1: EsCas13d, nuclease-dead (Eubacterium siraeum, UniProt B0MS50, R295A;H300A;R849A;H854A)
T1 sequence: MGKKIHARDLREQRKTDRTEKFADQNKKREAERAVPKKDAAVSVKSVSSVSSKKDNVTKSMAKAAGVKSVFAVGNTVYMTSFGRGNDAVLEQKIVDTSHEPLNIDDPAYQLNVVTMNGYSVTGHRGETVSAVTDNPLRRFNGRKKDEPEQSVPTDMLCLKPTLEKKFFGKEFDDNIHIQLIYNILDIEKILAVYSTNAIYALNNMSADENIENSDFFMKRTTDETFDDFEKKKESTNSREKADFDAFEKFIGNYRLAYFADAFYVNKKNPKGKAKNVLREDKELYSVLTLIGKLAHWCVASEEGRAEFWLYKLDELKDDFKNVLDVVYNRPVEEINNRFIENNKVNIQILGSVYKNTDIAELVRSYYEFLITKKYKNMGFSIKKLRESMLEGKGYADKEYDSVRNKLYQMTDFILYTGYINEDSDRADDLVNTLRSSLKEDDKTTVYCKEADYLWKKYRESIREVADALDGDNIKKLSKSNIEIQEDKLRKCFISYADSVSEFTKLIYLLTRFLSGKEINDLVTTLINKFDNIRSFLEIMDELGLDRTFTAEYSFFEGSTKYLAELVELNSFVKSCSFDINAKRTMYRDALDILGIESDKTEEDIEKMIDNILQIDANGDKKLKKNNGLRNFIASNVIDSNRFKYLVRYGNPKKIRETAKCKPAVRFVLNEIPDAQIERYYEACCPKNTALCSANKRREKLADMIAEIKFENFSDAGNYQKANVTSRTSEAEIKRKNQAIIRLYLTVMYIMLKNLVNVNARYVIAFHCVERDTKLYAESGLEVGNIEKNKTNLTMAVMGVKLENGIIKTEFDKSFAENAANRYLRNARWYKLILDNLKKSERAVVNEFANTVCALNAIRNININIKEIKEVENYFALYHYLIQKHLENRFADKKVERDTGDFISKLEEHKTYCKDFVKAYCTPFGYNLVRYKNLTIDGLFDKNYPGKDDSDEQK

B1: target 1 MT 5'PFS GGC 3'PFS ACA (mixed)
RNA 1: CACCCGUGCAAAAAUGCAGGGGUCUAAAACUGAGCGGAUAACCUCUCUAUGG
RNA 2: GGGAAUGGAUCCACAUCUACGAAUUCGGCCCAUAGAGAGGUUAUCCGCUCAACAAGAUCGGAAGAGCACACGU
B2: target 1 MT 5'PFS AAG 3'PFS AGA (mixed)
RNA 1: CACCCGUGCAAAAAUGCAGGGGUCUAAAACUGAGCGGAUAACCUCUCUAUGG
RNA 2: GGGAAUGGAUCCACAUCUACGAAUUCAAGCCAUAGAGAGGUUAUCCGCUCAAGAAGAUCGGAAGAGCACACGU
B3: target 1 MT 5'PFS GCA 3'PFS CGU (mixed)
RNA 1: CACCCGUGCAAAAAUGCAGGGGUCUAAAACUGAGCGGAUAACCUCUCUAUGG
RNA 2: GGGAAUGGAUCCACAUCUACGAAUUCGCACCAUAGAGAGGUUAUCCGCUCACGUAGAUCGGAAGAGCACACGU
B4: target 1 MT 5'PFS UAG 3'PFS CGA (mixed)
RNA 1: CACCCGUGCAAAAAUGCAGGGGUCUAAAACUGAGCGGAUAACCUCUCUAUGG
RNA 2: GGGAAUGGAUCCACAUCUACGAAUUCUAGCCAUAGAGAGGUUAUCCGCUCACGAAGAUCGGAAGAGCACACGU
B5: target 1 MT 5'PFS CCU 3'PFS AAA (mixed)
RNA 1: CACCCGUGCAAAAAUGCAGGGGUCUAAAACUGAGCGGAUAACCUCUCUAUGG
RNA 2: GGGAAUGGAUCCACAUCUACGAAUUCCCUCCAUAGAGAGGUUAUCCGCUCAAAAAGAUCGGAAGAGCACACGU
B6: target 1 MT 5'PFS UCA 3'PFS UUG (mixed)
RNA 1: CACCCGUGCAAAAAUGCAGGGGUCUAAAACUGAGCGGAUAACCUCUCUAUGG
RNA 2: GGGAAUGGAUCCACAUCUACGAAUUCUCACCAUAGAGAGGUUAUCCGCUCAUUGAGAUCGGAAGAGCACACGU
B7: target 1 C4A (mixed)
RNA 1: CACCCGUGCAAAAAUGCAGGGGUCUAAAACUGAGCGGAUAACCUCUCUAUGG
RNA 2: GGGAAUGGAUCCACAUCUACGAAUUCGUACCAUAGAGAGGUUAUCCGAUCACCGAGAUCGGAAGAGCACACGU
B8: target 1 MT 5'PFS ACG 3'PFS CUA (mixed)
RNA 1: CACCCGUGCAAAAAUGCAGGGGUCUAAAACUGAGCGGAUAACCUCUCUAUGG
RNA 2: GGGAAUGGAUCCACAUCUACGAAUUCACGCCAUAGAGAGGUUAUCCGCUCACUAAGAUCGGAAGAGCACACGU
B9: target 1 MT 5'PFS ACG 3'PFS CUG (mixed)
RNA 1: CACCCGUGCAAAAAUGCAGGGGUCUAAAACUGAGCGGAUAACCUCUCUAUGG
RNA 2: GGGAAUGGAUCCACAUCUACGAAUUCACGCCAUAGAGAGGUUAUCCGCUCACUGAGAUCGGAAGAGCACACGU
B10: target 1 MT 5'PFS GAA 3'PFS UGC (mixed)
RNA 1: CACCCGUGCAAAAAUGCAGGGGUCUAAAACUGAGCGGAUAACCUCUCUAUGG
RNA 2: GGGAAUGGAUCCACAUCUACGAAUUCGAACCAUAGAGAGGUUAUCCGCUCAUGCAGAUCGGAAGAGCACACGU
B11: target 1 MT 5'PFS CCU 3'PFS AAC (mixed)
RNA 1: CACCCGUGCAAAAAUGCAGGGGUCUAAAACUGAGCGGAUAACCUCUCUAUGG
RNA 2: GGGAAUGGAUCCACAUCUACGAAUUCCCUCCAUAGAGAGGUUAUCCGCUCAAACAGAUCGGAAGAGCACACGU
B12: target 1 MT 5'PFS GGA 3'PFS GGU (mixed)
RNA 1: CACCCGUGCAAAAAUGCAGGGGUCUAAAACUGAGCGGAUAACCUCUCUAUGG
RNA 2: GGGAAUGGAUCCACAUCUACGAAUUCGGACCAUAGAGAGGUUAUCCGCUCAGGUAGAUCGGAAGAGCACACGU
B13: target 1 MT 5'PFS GUG 3'PFS CUA (mixed)
RNA 1: CACCCGUGCAAAAAUGCAGGGGUCUAAAACUGAGCGGAUAACCUCUCUAUGG
RNA 2: GGGAAUGGAUCCACAUCUACGAAUUCGUGCCAUAGAGAGGUUAUCCGCUCACUAAGAUCGGAAGAGCACACGU
B14: target 1 MT 5'PFS GUG 3'PFS CUC (mixed)
RNA 1: CACCCGUGCAAAAAUGCAGGGGUCUAAAACUGAGCGGAUAACCUCUCUAUGG
RNA 2: GGGAAUGGAUCCACAUCUACGAAUUCGUGCCAUAGAGAGGUUAUCCGCUCACUCAGAUCGGAAGAGCACACGU
B15: target 1 MT 5'PFS GGA 3'PFS AGU (mixed)
RNA 1: CACCCGUGCAAAAAUGCAGGGGUCUAAAACUGAGCGGAUAACCUCUCUAUGG
RNA 2: GGGAAUGGAUCCACAUCUACGAAUUCGGACCAUAGAGAGGUUAUCCGCUCAAGUAGAUCGGAAGAGCACACGU
B16: target 1 MT 5'PFS GGA 3'PFS GGG (mixed)
RNA 1: CACCCGUGCAAAAAUGCAGGGGUCUAAAACUGAGCGGAUAACCUCUCUAUGG
RNA 2: GGGAAUGGAUCCACAUCUACGAAUUCGGACCAUAGAGAGGUUAUCCGCUCAGGGAGAUCGGAAGAGCACACGU
B17: target 1 MT 5'PFS AAG 3'PFS AGG (mixed)
RNA 1: CACCCGUGCAAAAAUGCAGGGGUCUAAAACUGAGCGGAUAACCUCUCUAUGG
RNA 2: GGGAAUGGAUCCACAUCUACGAAUUCAAGCCAUAGAGAGGUUAUCCGCUCAAGGAGAUCGGAAGAGCACACGU
B18: target 1 MT 5'PFS GCA 3'PFS CGC (mixed)
RNA 1: CACCCGUGCAAAAAUGCAGGGGUCUAAAACUGAGCGGAUAACCUCUCUAUGG
RNA 2: GGGAAUGGAUCCACAUCUACGAAUUCGCACCAUAGAGAGGUUAUCCGCUCACGCAGAUCGGAAGAGCACACGU
B19: target 1 MT 5'PFS CUG 3'PFS UAC (mixed)
RNA 1: CACCCGUGCAAAAAUGCAGGGGUCUAAAACUGAGCGGAUAACCUCUCUAUGG
RNA 2: GGGAAUGGAUCCACAUCUACGAAUUCCUGCCAUAGAGAGGUUAUCCGCUCAUACAGAUCGGAAGAGCACACGU
B20: target 1 MT 5'PFS GGA 3'PFS AGC (mixed)
RNA 1: CACCCGUGCAAAAAUGCAGGGGUCUAAAACUGAGCGGAUAACCUCUCUAUGG
RNA 2: GGGAAUGGAUCCACAUCUACGAAUUCGGACCAUAGAGAGGUUAUCCGCUCAAGCAGAUCGGAAGAGCACACGU
B21: target 1 insC 3' of 20,insC 3' of 18 (mixed)
RNA 1: CACCCGUGCAAAAAUGCAGGGGUCUAAAACUGAGCGGAUAACCUCUCUAUGG
RNA 2: GGGAAUGGAUCCACAUCUACGAAUUCGUACCACUACGAGAGGUUAUCCGCUCACCGAGAUCGGAAGAGCACACGU
B22: target 1 C21U,C22A (mixed)
RNA 1: CACCCGUGCAAAAAUGCAGGGGUCUAAAACUGAGCGGAUAACCUCUCUAUGG
RNA 2: GGGAAUGGAUCCACAUCUACGAAUUCGUAAUAUAGAGAGGUUAUCCGCUCACCGAGAUCGGAAGAGCACACGU
B23: target 1 MT 5'PFS GAA 3'PFS UGA (mixed)
RNA 1: CACCCGUGCAAAAAUGCAGGGGUCUAAAACUGAGCGGAUAACCUCUCUAUGG
RNA 2: GGGAAUGGAUCCACAUCUACGAAUUCGAACCAUAGAGAGGUUAUCCGCUCAUGAAGAUCGGAAGAGCACACGU
B24: target 1 MT 5'PFS UAG 3'PFS CGG (mixed)
RNA 1: CACCCGUGCAAAAAUGCAGGGGUCUAAAACUGAGCGGAUAACCUCUCUAUGG
RNA 2: GGGAAUGGAUCCACAUCUACGAAUUCUAGCCAUAGAGAGGUUAUCCGCUCACGGAGAUCGGAAGAGCACACGU
B25: target 1 MT 5'PFS GUG 3'PFS CUU (mixed)
RNA 1: CACCCGUGCAAAAAUGCAGGGGUCUAAAACUGAGCGGAUAACCUCUCUAUGG
RNA 2: GGGAAUGGAUCCACAUCUACGAAUUCGUGCCAUAGAGAGGUUAUCCGCUCACUUAGAUCGGAAGAGCACACGU
B26: target 1 MT 5'PFS UCA 3'PFS UUA (mixed)
RNA 1: CACCCGUGCAAAAAUGCAGGGGUCUAAAACUGAGCGGAUAACCUCUCUAUGG
RNA 2: GGGAAUGGAUCCACAUCUACGAAUUCUCACCAUAGAGAGGUUAUCCGCUCAUUAAGAUCGGAAGAGCACACGU
B27: target 1 MT 5'PFS GAA 3'PFS UGU (mixed)
RNA 1: CACCCGUGCAAAAAUGCAGGGGUCUAAAACUGAGCGGAUAACCUCUCUAUGG
RNA 2: GGGAAUGGAUCCACAUCUACGAAUUCGAACCAUAGAGAGGUUAUCCGCUCAUGUAGAUCGGAAGAGCACACGU
B28: target 1 MT 5'PFS UAG 3'PFS CGU (mixed)
RNA 1: CACCCGUGCAAAAAUGCAGGGGUCUAAAACUGAGCGGAUAACCUCUCUAUGG
RNA 2: GGGAAUGGAUCCACAUCUACGAAUUCUAGCCAUAGAGAGGUUAUCCGCUCACGUAGAUCGGAAGAGCACACGU

molecular target: T1, EsCas13d, nuclease-dead; assay: crRNA (strand 1, pre-loaded); Mg2+; 40 mM Tris-HCl pH 7.5, 150 mM NaCl, 6 mM MgCl2, 1 mM DTT, 0.1% Tween-20, 0.2 mg/ml BSA; 25 C; 10 min per concentration, then washed; conditions: tags: His6-TwinStrep-SUMO cleaved; N-terminal SNAP kept (SNAP-Surface 488); label: 3' end held by stalled T7 RNA polymerase

In order of falling Kd:
1. B18  71 ± 27 nM
2. B28  63.5 ± 28 nM
3. B17  60.5 ± 22.5 nM
4. B5  59.5 ± 20 nM
5. B27  56.5 ± 14.5 nM
6. B24  55 ± 10 nM
7. B16  54 ± 18 nM
8. B9  53.5 ± 23 nM
9. B12  45 ± 18 nM
10. B2  38 ± 14 nM
11. B6  37 ± 9.5 nM
12. B8  ~32 nM
13. B23  30.5 ± 9 nM
14. B22  28.9 ± 2 nM
15. B4  27 ± 6 nM
16. B15  22 ± 3.7 nM
17. B1  20 ± 10 nM
18. B14  19.4 ± 2.75 nM
19. B11  18 ± 4.5 nM
20. B13  16.2 ± 2 nM
21. B20  15.6 ± 2.9 nM
22. B3  11.4 ± 2.2 nM
23. B10  10.8 ± 2.05 nM
24. B26  10.8 ± 2.25 nM
25. B25  10.2 ± 0.9 nM
26. B21  6.1 ± 0.5 nM
27. B19  4.1 ± 0.7 nM
28. B7  3.8 ± 0.4 nM
